These results are taken from publication PMC12024694, “RNA Binding to CCRRM of PABPN1 Induces Conformation Change”.

For data set [1], the target named is T1, PABPN1 CCRRM fragment (coiled coil + RRM) (UniProt Q86U42 114-254).
T1 sequence: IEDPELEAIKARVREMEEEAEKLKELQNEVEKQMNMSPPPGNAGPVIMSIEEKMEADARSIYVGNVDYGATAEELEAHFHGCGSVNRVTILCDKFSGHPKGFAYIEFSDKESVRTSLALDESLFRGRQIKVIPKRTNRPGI
Kind of data set: EMSA; 50 uM RNA; protein:RNA ratio 0 to 5; EMSA and SHAPE: 10 mM Tris-HCl pH 8.0, 25 mM KCl, 10 mM NaCl, 1 mM MgCl2, 10% glycerol, 0.5 mM DTT, 25 C, 20 min (1M7 step at 35 C); BLI: room temperature, 0.5. As to conditions: protein: recombinant; tags: Trx and His (Ni-NTA) fusion, pET-MG vector. For orientation: A gel shift assay detects complexes by their altered migration in electrophoresis.

In data set [2] the target is T1, PABPN1 CCRRM fragment (coiled coil + …). The experiment in a line: BLI; kon 4.1e-5 (so in the source), koff 1.71e-3 s-1; text ranks A12 lowest affinity, inconsistent with values; EMSA and SHAPE: 10 mM Tris-HCl pH 8.0, 25 mM KCl, 10 mM NaCl, 1 mM MgCl2, 10% glycerol, 0.5 mM DTT, 25 C, 20 min (1M7 step at 35 C); BLI: room temperature, 0.5. As to conditions: protein: recombinant; tags: Trx and His (Ni-NTA) fusion, pET-MG vector; label: 5' biotin. For orientation: BLI is a label-free optical method that tracks binding on a fibre tip over time.

Data set [3] shares this target. The experiment in a line: BLI; kon 3.589e-5 (so in the source), koff 1.34e-3 s-1; room temperature; EMSA and SHAPE: 10 mM Tris-HCl pH 8.0, 25 mM KCl, 10 mM NaCl, 1 mM MgCl2, 10% glycerol, 0.5 mM DTT, 25 C, 20 min (1M7 step at 35 C); BLI: room temperature, 0.5. As to conditions: protein: recombinant; tags: Trx and His (Ni-NTA) fusion, pET-MG vector; label: 5' biotin.

The target is the same in data set [4]. Kind of data set: EMSA; 40 uM RNA; protein:RNA ratio 0 to 10; EMSA and SHAPE: 10 mM Tris-HCl pH 8.0, 25 mM KCl, 10 mM NaCl, 1 mM MgCl2, 10% glycerol, 0.5 mM DTT, 25 C, 20 min (1M7 step at 35 C); BLI: room temperature, 0.5. The settings on record: protein: recombinant; tags: Trx and His (Ni-NTA) fusion, pET-MG vector.
The target is the same in data set [5]. Kind of data set: BLI; kon 4.24e-5 (so in the source), koff 2.031e-3 s-1; text ranks A18 intermediate, inconsistent with values; EMSA and SHAPE: 10 mM Tris-HCl pH 8.0, 25 mM KCl, 10 mM NaCl, 1 mM MgCl2, 10% glycerol, 0.5 mM DTT, 25 C, 20 min (1M7 step at 35 C); BLI: room temperature, 0.5. As to conditions: protein: recombinant; tags: Trx and His (Ni-NTA) fusion, pET-MG vector; label: 5' biotin.

For data set [6] the target is unchanged. Kind of data set: SHAPE footprinting (1M7); A-rich protected, CU-rich partly protected; CA-rich and GU-rich stable, AU-rich more reactive; text elsewhere calls GU-rich moderate affinity; EMSA and SHAPE: 10 mM Tris-HCl pH 8.0, 25 mM KCl, 10 mM NaCl, 1 mM MgCl2, 10% glycerol, 0.5 mM DTT, 25 C, 20 min (1M7 step at 35 C); BLI: room temperature, 0.5. The settings on record: protein: recombinant; tags: Trx and His (Ni-NTA) fusion, pET-MG vector.

B1: A-rich RNA (ssRNA)
RNA: UAAUACGACUCACUAUAGGGUGGUCAGUCGAGUGGAAAAAAAAAAAAAAAAAAGGGCGGCAUGGUCCCAGCCUCCU
As to B1, the binding result in data set [1] was “binds”.
As usually defined, the Kd is the equilibrium constant for the complex coming apart. Turning to AAAAAAAAAAAA (ssRNA) [A12], the dissociation constant (Kd) in data set [2] came to 4.17 nM.
For AAAAAA (ssRNA) [A6], in data set [3], the Kd amounted to 3.38 nM.

B2: U-rich RNA (ssRNA)
RNA: UAAUACGACUCACUAUAGGGUGGUCAGUCGAGUGGUUUUUUUUUUUUUUUUUUGGGCGGCAUGGUCCCAGCCUCCU
For the molecule B2, the binding result in data set [4] is listed as “no binding”.
Regarding AAAAAAAAAAAAAAAAAA (ssRNA) [A18], the Kd in data set [5] worked out at 4.79 nM.

B3: RE_A-rich RNA (structured_RNA)
RNA: CCUUCGGGCCAAAUUUAUUUAUUUAUUUAUUUAGCUGACGAUAAAAAAAAAAAAAAAAAACCACACACACAGGAAUCGACUCUGUUUGUUUGUGUUUGUUUGUACUGAAUUGGCACUUUUCCCCUUUUCCCUUUCUGGACUGGCAUCGAUCCGGUUCGCCGGAUCCAAAUCGGGCUUCGGUCCGGUUC
For the molecule B3, in data set [6], the binding result is listed as “binds”.
